Fewer inactive variants are shown than the library holds.

The chains are these.
B1: TPR 5TU (parent)
chain: GGAUCUUCUCGAUCUAACAAAAAAGACAAAUCUGCCACAAAGCUUGAGAGCAUCUUCGGAUGCAGAGGCGGCAGCCUUCGGUGGCGCGAUAGCGCCAACGUUCUCAACUAUGACACGCAAAACGCGUGCUCCGUUGAAUGGAGUUUAUCAUG

In this data set the parent is B1. Put plainly: polymerase ribozyme fitness, log enrichment relative to wild type (log ratio); higher = more active; in vitro selection for triplet polymerase activity. The gist of the method: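 PCR was used to build mutant libraries for each subunit of a heterodimeric triplet polymerase ribozyme, which were then transcribed. A single in vitro selection round, in triplicate, used a frozen incubation at −7 °C and recovered extended constructs by gel excision, streptavidin beads and RT-PCR. Fitness is the logarithm of genotype enrichment relative to wild-type enrichment, averaged over replicates with inverse-variance weights. The logarithm is base 2, and after Illumina sequencing only genotypes with ≥10 input reads and ≥1 read per output were kept.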
C76G G84A A122G: the “polymerase ribozyme fitness (log ratio)” value was at most -4.2.
For U78C A142U the value was -1.72; for U78C A142G, -1.33; for G80C C87U, at most -4.2.
Regarding C79U C87G, the “polymerase ribozyme fitness (log ratio)” value is -3.61.
Take C79A U82G C93A G141U G152U: the “polymerase ribozyme fitness (log ratio)” value is at most -4.2.
To U78G C85G A142G U146C belongs at most -4.2; to C76U A150C, -3.79.
To C76U A150U belongs 0.843.
For C76A A138U, the “polymerase ribozyme fitness (log ratio)” value is -4.05.
Regarding U77G G84U, the “polymerase ribozyme fitness (log ratio)” value is at most -4.2.
C76A C123U U134A: the “polymerase ribozyme fitness (log ratio)” value is -1.5.
For C76A C79U C96A U139A, the “polymerase ribozyme fitness (log ratio)” value is at most -4.2.
As to U78G C87G, the “polymerase ribozyme fitness (log ratio)” value is at most -4.2.
Turning to U77G A89G C95G C105G C108G, the “polymerase ribozyme fitness (log ratio)” value was at most -4.2.
To C76U G84U belongs -0.883.
For C76U G84C, the “polymerase ribozyme fitness (log ratio)” value is -1.35.
On to C75U G92U G112C A113U C114G, for which the “polymerase ribozyme fitness (log ratio)” value was at most -4.2.
To C76U C85A A106C belongs at most -4.2; to C76A U102G, at most -4.2.
With C76U G84U A98U, the “polymerase ribozyme fitness (log ratio)” value was -1.66.
To G80A C85A belongs -0.619; to C76U A97G G100A A142G, at most -4.2; to C76G G86A, at most -4.2.
For the variant C76A C105U, the “polymerase ribozyme fitness (log ratio)” value is -2.47.
For the variant C79A A106G U146G, the “polymerase ribozyme fitness (log ratio)” value is at most -4.2.
As to C75U C96A G128U, the “polymerase ribozyme fitness (log ratio)” value is -3.56.
For the variant C76U C85G A147C, the “polymerase ribozyme fitness (log ratio)” value is -0.612.
For the variant C75U G94C A142C, the “polymerase ribozyme fitness (log ratio)” value was -2.58.
As for C79A U139C A142G U148A, the “polymerase ribozyme fitness (log ratio)” value was at most -4.2.
For U77G C93U G100U the value was at most -4.2; for C76U G84U G143A, -2.57.
In the case of C76A C93A, the “polymerase ribozyme fitness (log ratio)” value was -3.88.
As to C76G G140U U151G, the “polymerase ribozyme fitness (log ratio)” value was at most -4.2.
U78G A89U A106G C118U: the “polymerase ribozyme fitness (log ratio)” value was at most -4.2.
For C76U G84A C118U U134A G140C U151A the value was at most -4.2.
As to C76A U78C C103G, the “polymerase ribozyme fitness (log ratio)” value was at most -4.2.
To C76G A98G A113U U151G belongs at most -4.2.
In the case of C76A G86U, the “polymerase ribozyme fitness (log ratio)” value was -1.75.
On to U78C G92C C105U A106G C114U U148G, for which the “polymerase ribozyme fitness (log ratio)” value is at most -4.2.
In the case of C76U C93A, the “polymerase ribozyme fitness (log ratio)” value is -2.34.
G80U G84A G126C C132U U145A: the “polymerase ribozyme fitness (log ratio)” value was -3.25.
As to C76U G84A A119U U145G, the “polymerase ribozyme fitness (log ratio)” value is -2.68.
U78C C85U C103A G141U G152U: the “polymerase ribozyme fitness (log ratio)” value is at most -4.2.
On to C76U A89G, for which the “polymerase ribozyme fitness (log ratio)” value was -1.03.
Turning to C76A U104A C125A A142C U144A, the “polymerase ribozyme fitness (log ratio)” value was at most -4.2.
For C75U U90C A91U C93G G94U A98C, the “polymerase ribozyme fitness (log ratio)” value was at most -4.2.
C79G A122C G140A: the “polymerase ribozyme fitness (log ratio)” value was at most -4.2.
Take C76U G84A C85A C129U U134C: the “polymerase ribozyme fitness (log ratio)” value is at most -4.2.
Turning to C76G G92U A121G G143U, the “polymerase ribozyme fitness (log ratio)” value is at most -4.2.
Regarding C76U C93G C132U, the “polymerase ribozyme fitness (log ratio)” value is -3.96.
C76U C87G C125G: the “polymerase ribozyme fitness (log ratio)” value was at most -4.2.
As to C76A C85U, the “polymerase ribozyme fitness (log ratio)” value is -0.443.
Consider C76A C85A, for which the “polymerase ribozyme fitness (log ratio)” value is -1.96.
In the case of G80A C93U U102A, the “polymerase ribozyme fitness (log ratio)” value is -3.01.
With C75U G86C A115U, the “polymerase ribozyme fitness (log ratio)” value is -2.41.
Turning to C79G A91G A113U, the “polymerase ribozyme fitness (log ratio)” value is at most -4.2.
Turning to C76A U82G C96U, the “polymerase ribozyme fitness (log ratio)” value was -0.697.
For the variant U77A C93A A113C, the “polymerase ribozyme fitness (log ratio)” value is at most -4.2.
Turning to G80C G84C G133A G141C, the “polymerase ribozyme fitness (log ratio)” value was at most -4.2.
On to C79G A98G G100C G124A, for which the “polymerase ribozyme fitness (log ratio)” value was -2.18.
With C76A U82A C85G A106G A107U C108G C129A, the “polymerase ribozyme fitness (log ratio)” value is at most -4.2.
As for U78G A91C C131G, the “polymerase ribozyme fitness (log ratio)” value is at most -4.2.
In the case of U78G C85U G126U, the “polymerase ribozyme fitness (log ratio)” value is at most -4.2.
Consider U78C, for which the “polymerase ribozyme fitness (log ratio)” value is -0.318.
On to U78A, for which the “polymerase ribozyme fitness (log ratio)” value is -3.62.
Take C79U G92U: the “polymerase ribozyme fitness (log ratio)” value is -1.44.
As for C79U G140C, the “polymerase ribozyme fitness (log ratio)” value was -4.1.
As for C76A A97G, the “polymerase ribozyme fitness (log ratio)” value was -1.4.
As to C79U A97G, the “polymerase ribozyme fitness (log ratio)” value was -3.02.
Consider G80A A150G, for which the “polymerase ribozyme fitness (log ratio)” value was -1.8.
For C76U C85U the value was -2.03; for C76U U82G C87U, 0.25.
On to C79U A91U C125A, for which the “polymerase ribozyme fitness (log ratio)” value was at most -4.2.
Consider G80U A110G, for which the “polymerase ribozyme fitness (log ratio)” value is -4.05.
Turning to C76A C129G G136A, the “polymerase ribozyme fitness (log ratio)” value is -3.95.
With C76U A91U G92A, the “polymerase ribozyme fitness (log ratio)” value is -4.02.
On to C75U C95G C96G, for which the “polymerase ribozyme fitness (log ratio)” value is -3.09.
Consider C79A C93G C95U U127G C131U G143U, for which the “polymerase ribozyme fitness (log ratio)” value was at most -4.2.
Consider C79G C87U G100U, for which the “polymerase ribozyme fitness (log ratio)” value is -2.91.
For G80C G86U G94C A137C, the “polymerase ribozyme fitness (log ratio)” value is at most -4.2.
C76A U77G C95U G100U: the “polymerase ribozyme fitness (log ratio)” value is -4.15.
Regarding C76G G83U C103U, the “polymerase ribozyme fitness (log ratio)” value is at most -4.2.

These data come from the RNAGym collection of RNA variant scans (doi:10.1073/pnas.2313332121).
